For four molecules, Kd results are on record in PMC9170159 (Proceedings of the National Academy of Sciences of the …, 2022).

Assay [1] has as its target SARS-CoV-2 (Wuhan-Hu-1) spike receptor-binding domain, His-tagged (SARS-CoV-2, UniProt P0DTC2 319-541). The experiment in a line: BLI. The conditions noted are these: both partners purified.
The target of assay [2] is SARS-CoV-2 spike receptor-binding domain (RBD), Wuhan-Hu-1, His-tagged (SARS-CoV-2 (Wuhan-Hu-1), UniProt P0DTC2). The experiment in a line: BLI. The conditions noted are these: both partners purified.

B1: NCI-CoV-2F7 VHH-hFc fusion protein (Fc fusion)
VHH: QVKLEESGGGSVQSGGSLRLSCTVSRDTNTNINRCMGWFRQAPGKGLETVATINRDGTNTYYTDAVKGRFTISQDNVKNTVYLQMNNLTPEDTGTYICNAMGRGSGSRCDNWDPNYWGQGTQVTVSS
notes: also called 2F7 VHH-Fc; source: Expi293 cells, transfected, purified (protein A column)
The term Kd denotes the constant that tells how readily two partners part at equilibrium. A higher Kd goes with lower affinity. With B1, the dissociation constant Kd in assay [1] was found to be 0.77 nM.

B2: NCI-CoV-2F7 monomeric VHH (VHH-His) (VHH)
VHH: B1 VHH
In assay [2], B2 had a Kd of 0.75 nM.

B3: NCI-CoV-8A2 monomeric VHH (VHH-His) (VHH)
VHH: AVQLVDSGGGSVQAGGSLRLSCAASGYTYSICTMGWYRQAPGEGLEWVSGINADGSNTHYTDSVKGRFTISRDNAKKTLYLQMNSLKPEDTAIYYCAAHGTYDKYAPCGGFAGTYTYWGQGTQVTVSS
Molecule B3 gave a Kd in assay [2] of 0.8 nM.

B4: NCI-CoV-7A3 monomeric VHH (VHH-His) (VHH)
VHH: QVQLVESGGGSVQPGGSLRLSCVVSGYTSSSRYMGWFRQVPGKGLEWVSGIKRDGTNTYYADSVKGRFTISQDNAKNTVYLQMNSLKPEDTAMYYCAAGSWYNQWGYSMDYWGKGTQVTVSS
On to B4, for which the dissociation constant (Kd) in assay [2] turned out to be 0.96 nM.
